Test results: patent US20180346571A1

Tests used:
[1] = target: human PD-L1 ECD-CD4TM-GFP expressed on HEK-293 / HEK-293T cells (human) (UniProt Q9NZQ7); experiment: FACS on HEK-293 cells transfected with hPD-L1-GFP, secondary antibody alone (negative control)
[2] = target: mouse PD-L1-CD4TM-GFP expressed on HEK-293 cells (mouse) (UniProt Q9EP73); experiment: FACS on HEK-293 cells transfected with mPD-L1-GFP, secondary antibody alone (negative control)
[3] = target: cynomolgus PD-L1-CD4TM-GFP expressed on HEK-293 cells (cynomolgus) (UniProt G7PSE7); experiment: FACS on HEK-293 cells transfected with cyno PD-L1-GFP, secondary antibody alone (negative control)
[4] = target: human PD-L1 ECD-CD4TM-GFP expressed on HEK-293 / HEK-293T cells (human) (UniProt Q9NZQ7); experiment: FACS on HEK-293T cells expressing hPD-L1-GFP, control panel headed anti-mFc-PE in the row 'No antibody' (taken as the control without PD-1-Fc of paragraph 289)

Sequence of UniProt Q9NZQ7 (Q9NZQ7 19-238): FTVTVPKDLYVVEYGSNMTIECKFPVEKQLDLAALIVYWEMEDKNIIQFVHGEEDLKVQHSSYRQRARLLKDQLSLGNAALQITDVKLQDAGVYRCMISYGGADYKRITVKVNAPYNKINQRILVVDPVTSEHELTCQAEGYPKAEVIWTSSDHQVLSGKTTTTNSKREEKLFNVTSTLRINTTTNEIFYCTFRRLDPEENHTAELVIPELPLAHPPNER
Sequence of UniProt Q9EP73 (Q9EP73 19-239): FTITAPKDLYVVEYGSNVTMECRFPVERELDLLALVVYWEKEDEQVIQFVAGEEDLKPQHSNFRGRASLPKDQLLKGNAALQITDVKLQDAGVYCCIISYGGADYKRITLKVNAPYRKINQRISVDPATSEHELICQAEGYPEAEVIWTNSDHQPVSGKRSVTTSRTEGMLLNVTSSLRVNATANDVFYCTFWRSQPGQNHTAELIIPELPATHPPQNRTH
Sequence of UniProt G7PSE7 (G7PSE7 entry or part of it limits assumed): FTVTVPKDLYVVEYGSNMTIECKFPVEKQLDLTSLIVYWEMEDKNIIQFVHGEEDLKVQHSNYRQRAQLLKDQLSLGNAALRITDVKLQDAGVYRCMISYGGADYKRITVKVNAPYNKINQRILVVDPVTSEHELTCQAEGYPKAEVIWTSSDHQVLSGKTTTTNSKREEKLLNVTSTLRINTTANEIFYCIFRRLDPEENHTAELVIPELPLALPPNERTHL

## Only anti-mFc Ab (antibody)
[1]
  MFI: 6

## Only anti-hFc Ab (antibody)
[2]
  MFI: 3
[1]
  MFI: 3
[3]
  MFI: 3

## anti-mFc-PE (antibody)
[4]
  MFI: 10
